# Test results: paper PMC5821440
# Numbered stars: 1 amine (or outer) side, 2 acyl side, 3 side chain; on linkers, the order of the positions; unused ones are H or OH. * marks the point of attachment. pNA = O=[N+]([O-])c1ccc(N*)cc1; Suc = O=C(CCC(=O)[*:2])[*:1]
# What was measured:
# [1] = target: Pro21717-CD, catalytic domain of the cold-active subtilisin-like serine protease Pro21717 from Pseudoalteromonas arctica PAMC 21717 (Pseudoalteromonas arctica PAMC 21717); assay: not stated; purified Pro21717-CD in solution, three days after refolding; method in S2 Fig, not shown
# [2] = target: Pro21717-CD, catalytic domain of the cold-active subtilisin-like serine protease Pro21717 from Pseudoalteromonas arctica PAMC 21717 (Pseudoalteromonas arctica PAMC 21717)
stoichiometry N [1],"relative proteolytic activity (%) on N-succinyl-AAPF-p-nitroanilide, 0.83 mM, 30°C, 5 min (the best peptide substrate, set to 100) [2]",Molecule
2,–,"Pro21717-CD, catalytic domain of the cold-active subtilisin-like serine protease Pro21717 from Pseudoalteromonas arctica PAMC 21717 (domain or fragment)"
–,100%,Suc-AAPF-pNA [N-succinyl-Ala-Ala-Pro-Phe-p-nitroanilide]
